Results on 6 molecules are retold here after PMC3959648, “Screening protein – Single stranded RNA complexes by NMR spectroscopy for structure determination☆”.

Common to all, as to settings: protein: recombinant; tags: N-terminal His tag removed by TEV
Series [1] deals with T1, Sam68 KH (UniProt Q07666 150-260). Briefly: NMR 15N-1H HSQC CSP; slow exchange; strong affinity; T-STAR KH: 10 mM Tris-HCl pH 7 (also given as pH 6.5, 50 mM NaCl, 30 C); Sam68 KH: 20 mM sodium phosphate pH 7.0, 50 mM NaCl, 20 C; about 0.2 mM protein, protein:RNA 1:0.5 and 1:1.
T1 sequence (Q07666 150-260): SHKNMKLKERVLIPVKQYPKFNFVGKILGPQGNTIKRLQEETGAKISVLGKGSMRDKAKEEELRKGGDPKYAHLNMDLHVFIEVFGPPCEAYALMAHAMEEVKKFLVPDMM
Series [2] has as its target T2, T-STAR KH (UniProt O75525 50-160).
T2 sequence: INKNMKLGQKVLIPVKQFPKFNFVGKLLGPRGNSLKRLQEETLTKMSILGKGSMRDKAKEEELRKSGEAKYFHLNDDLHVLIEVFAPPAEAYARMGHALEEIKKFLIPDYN
Description: NMR 15N-1H HSQC CSP; fast exchange; T-STAR KH: 10 mM Tris-HCl pH 7 (also given as pH 6.5, 50 mM NaCl, 30 C); Sam68 KH: 20 mM sodium phosphate pH 7.0, 50 mM NaCl, 20 C; about 0.2 mM protein, protein:RNA 1:0.5 and 1:1.

The target of the next series is T3, T-STAR KH-QUA2 (UniProt O75525 50-183).
T3 sequence: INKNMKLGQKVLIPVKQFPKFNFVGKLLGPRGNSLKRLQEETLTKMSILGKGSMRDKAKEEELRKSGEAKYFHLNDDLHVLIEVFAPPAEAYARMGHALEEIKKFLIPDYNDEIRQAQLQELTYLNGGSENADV
Description: NMR 15N-1H HSQC CSP; T-STAR KH: 10 mM Tris-HCl pH 7 (also given as pH 6.5, 50 mM NaCl, 30 C); Sam68 KH: 20 mM sodium phosphate pH 7.0, 50 mM NaCl, 20 C; about 0.2 mM protein, protein:RNA 1:0.5 and 1:1.

Series [3] has as its target T2, T-STAR KH. Briefly: NMR TOCSY; 100% D2O; chemical exchange, possibly multiple registers; T-STAR KH: 10 mM Tris-HCl pH 7 (also given as pH 6.5, 50 mM NaCl, 30 C); Sam68 KH: 20 mM sodium phosphate pH 7.0, 50 mM NaCl, 20 C; about 0.2 mM protein, protein:RNA 1:0.5 and 1:1.
The target in series [4] is T2, T-STAR KH. Briefly: NMR 15N-1H HSQC CSP; fast to intermediate exchange; higher affinity than AAAUAA; T-STAR KH: 10 mM Tris-HCl pH 7 (also given as pH 6.5, 50 mM NaCl, 30 C); Sam68 KH: 20 mM sodium phosphate pH 7.0, 50 mM NaCl, 20 C; about 0.2 mM protein, protein:RNA 1:0.5 and 1:1.
Series [5] has as its target T1, Sam68 KH. Description: NMR 15N-1H HSQC CSP; T-STAR KH: 10 mM Tris-HCl pH 7 (also given as pH 6.5, 50 mM NaCl, 30 C); Sam68 KH: 20 mM sodium phosphate pH 7.0, 50 mM NaCl, 20 C; about 0.2 mM protein, protein:RNA 1:0.5 and 1:1.

B1: AUUAAA (ssRNA)
RNA: AUUAAA
With B1, the binding result with Sam68 KH [1] was “binds”.

B2: AAAUAA (ssRNA)
RNA: AAAUAA
Turning to B2, the binding result in the series with T-STAR KH [2] and with T-STAR KH-QUA2 was “binds” in each case.

B3: UAAAUAAUU (ssRNA)
RNA: UAAAUAAUU
For B3, the binding result in the series with T-STAR KH [3] is on record as “binds”.

B4: UAAAAUUUUU (ssRNA)
RNA: UAAAAUUUUU
Turning to B4, in the series with T-STAR KH [3], the binding result is “binds”.

B5: AAAAAA (polyA 6mer) (ssRNA)
RNA: AAAAAA
Regarding B5, the binding result with T-STAR KH [4] was “binds”.

B6: UUUUUU (polyU 6mer) (ssRNA)
RNA: UUUUUU
Regarding B6, the binding result with Sam68 KH [5] was “no binding”.
